Publication PMC9638941, “Molecular basis of dual anti-CRISPR and auto-regulatory functions of AcrIF24” (Nucleic Acids Research, 2022)
Residue numbers refer to the chain shown, from its start.

Columns and labels:
[1] = target: P. aeruginosa type I-F Cascade complex (Cas5f1, Cas6f, six copies of Cas7f1, Cas8f1 and a 60 nt crRNA) (UniProt Q02MM2); test: SEC followed by SDS-PAGE, band intensity quantified; details: parent: est. 100; read off a plot
[2] = target: AcrIF24 Y128K/Y217W double mutant; test: SEC-MALS; details: parent: 55.76
AcrIF24 T129W = test: SEC-MALS; details: parent: 55.76
AcrIF24 R221W = test: SEC-MALS; details: parent: 55.76
AcrIF24 wild type [3] = target: T1, AcrIF24 wild type (Pseudomonas aeruginosa prophage, UniProt A0AA82WNY5 1-228); test: EMSA; EMSA-P: 10 mM HEPES pH 7.5, 1 mM MgCl2, 20 mM KCl, 1 mM TCEP, 5% glycerol, 30 min on ice; 10% native 0.5x TBE gel, SYBR Gold; Cascade EMSA buffer not in material; details: protein: recombinant, chain copies: 2, label: none (SYBR Gold stain)
T1 sequence: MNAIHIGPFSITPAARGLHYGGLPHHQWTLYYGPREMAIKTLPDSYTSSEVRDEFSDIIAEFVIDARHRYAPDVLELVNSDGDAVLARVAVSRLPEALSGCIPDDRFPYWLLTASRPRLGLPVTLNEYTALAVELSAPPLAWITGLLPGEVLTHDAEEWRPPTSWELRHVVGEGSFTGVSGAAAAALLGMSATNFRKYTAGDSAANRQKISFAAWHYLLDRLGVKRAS

[4] = target: the molecule itself; test: SEC-MALS; Superdex 200 Increase 10/300 GL, SEC buffer (20 mM Tris-HCl pH 8.0, 150 mM NaCl), 0.4 ml/min, 20°C; DAWN-TREOS detector
AcrIF24 wild type [5] = target: T1, AcrIF24 wild type; test: EMSA; concentration-dependent; EMSA-P: 10 mM HEPES pH 7.5, 1 mM MgCl2, 20 mM KCl, 1 mM TCEP, 5% glycerol, 30 min on ice; 10% native 0.5x TBE gel, SYBR Gold; Cascade EMSA buffer not in material; details: protein: recombinant; chain copies: 2; label: none (SYBR Gold stain); blunt

“AcrIF24 (wildtype, full length, residues 1-228) D105K” showed a percent of parent [1] of 98%.

“AcrIF24 (wildtype, full length, residues 1-228) G22Y” was tested, and the percent of parent [1] was 98%.

With “AcrIF24 (wildtype, full length, residues 1-228) Y128K; Y217W” the other: MW (kDa) by SEC-MALS [2] was 39.6 kDa.

With “AcrIF24 (wildtype, full length, residues 1-228) G189K” the percent of parent [1] was 88%.

In the case of “AcrIF24 (wildtype, full length, residues 1-228) T129W”, the other: MW (kDa) by SEC-MALS (AcrIF24 T129W) is reported as 53.9 kDa.

“AcrIF24 (wildtype, full length, residues 1-228) W110K” showed a percent of parent [1] of 11%.

Molecule “AcrIF24 (wildtype, full length, residues 1-228) R221W” has an other: MW (kDa) by SEC-MALS (AcrIF24 R221W) of 52.4 kDa.

B1: IR-S (dsDNA)
DNA 1: TAGCTCGATTCGAGCTA
DNA 2: TAGCTCGAATCGAGCTA
B1: binds (AcrIF24 wild type [3]; blunt).

B2: AcrIF24 (wildtype, full length, residues 1-228) (natural protein)
chain: T1 sequence
For B2, the “stoichiometry N” value [4] was 2.

B3: IR-L (dsDNA)
DNA 1: CAGAATATCATTGCATAGCTCGATTCGAGCTAATATAGTAATACCAACAGCGCGGCACACCGCCAGCACTGAACCT
DNA 2: AGGTTCAGTGCTGGCGGTGTGCCGCGCTGTTGGTATTACTATATTAGCTCGAATCGAGCTATGCAATGATATTCTG
B3: binds (AcrIF24 wild type [5]).

B4: IR-L half-site mutant (dsDNA)
DNA 1: B3 DNA 1 with T16G, A17C, G18A, C19T, T20G, C21A, G22T, A23C
DNA 2: B3 DNA 2 with T54G, C55A, G56T, A57C, G58A, C59T, T60G, A61C
B4: no binding (AcrIF24 wild type [3]).

B5: IR-S half-site mutant (dsDNA)
DNA 1: GCATGATCTTCGAGCTA
DNA 2: TAGCTCGAAGATCATGC
B5: no binding (AcrIF24 wild type [3]).
